From the RNAGym collection of RNA variant scans (doi:10.7554/elife.80360) come the findings set out here.

B1: Hairpin Ribozyme (parent)
chain: GUCCUCUUUCACGUGCGCGUGAAAGAGAGAAGUGAACCAGAGAAACACACGUUGUGGUAUAUUACCUGGUA

The data set covers variants of B1. Briefly: self-cleavage, relative activity (ratio to wild type); higher = more cleavage; co-transcriptional.
GUGCUCUUUCACGUGCGCGUGAAAGAGAGAAGUGAACCAGAGAAACACACGUUGGGGUAUAUUACCUGGUA [C3G U55G]: the self-cleavage came to 0.0936. On to GUGCUCUUUCACGUGCGCGUGAAAGAGAGAAGUGAACCAGAGAAACACACGUUGCGGUAUAUUACCUGGUA [C3G U55C], for which the self-cleavage is 0.118. The same measure for GUGCUCUUUCACGUGCGCGUGAAAGAGAGAAGUGAACCAGAGAAACACACGUUGUGGUAUACUACCUGGUA [C3G U62C]: 0.0668. The same measure for GUGCUCUUUCACGUGCGCGUGAAAGAGAGAAGUGAACCAGAGAAACACACGCUGUGGUAUAUUACCUGGUA [C3G U52C]: 0.359; for GUUCUCUUUCACGUGCGCGUGAAAGAGCGAAGUGAACCAGAGAAACACACGUUGUGGUAUAUUACCUGGUA [C3U A28C]: 0.452. GUUCUCUUUCACGUGCGCGUGAAAGAGAGAAGUGAACCAGAGAAAAACACGUUGUGGUAUAUUACCUGGUA [C3U C46A]: the self-cleavage turned out to be 0.121.

As to GUUCUCUUUCACGUGCGCGUGAAAGAGAGAAGUGAACCAGAGAAAGACACGUUGUGGUAUAUUACCUGGUA [C3U C46G], the self-cleavage is 0.179. The same measure for GUUCUCUUUCACGUGCGCGUGAAAGAGAGAAGUGCACCAGAGAAACACACGUUGUGGUAUAUUACCUGGUA [C3U A35C]: 0.802; for GUUCUCUUUCACGUGCGCGUGAAAGAGAGAAGUGUACCAGAGAAACACACGUUGUGGUAUAUUACCUGGUA [C3U A35U]: 0.339; for GUUCUCUUUCACGUGCGCGUGAAAGAGAGAAGUGAACCAGAGAAACAAACGUUGUGGUAUAUUACCUGGUA [C3U C48A]: 0.167. The same measure for GUUCUCUUUCACGUGCGCGUGAAAGAGAGCAGUGAACCAGAGAAACACACGUUGUGGUAUAUUACCUGGUA [C3U A30C]: 0.161. In the case of GUGCUCUUUCACGUGCGCGUGAAAGAGAGAAGUGAACCAGAGAAACACACGUUGUGGUAAAUUACCUGGUA [C3G U60A] it was 0.167; in that of GUGCUCUAUCACGUGCGCGUGAAAGAGAGAAGUGAACCAGAGAAACACACGUUGUGGUAUAUUACCUGGUA [C3G U8A], 0.377. Take GUUCUCUUUCACGUGCGCGUGAAAGAGAGAAGUGAACCAGUGAAACACACGUUGUGGUAUAUUACCUGGUA [C3U A41U]: the self-cleavage stood at 0.917. In the case of GUUCUCUUUCACGUGCGCGUGAAAGAGAGAAGUGAACCAGAGAAGCACACGUUGUGGUAUAUUACCUGGUA [C3U A45G] it was 0.101; in that of GUUCUCUUUCACGUGCGCGUGAAAGAGAGAAGUGAACCAGAGAACCACACGUUGUGGUAUAUUACCUGGUA [C3U A45C], 0.123. The same measure for GUGCUCUUUCACGUGCGCGUGAAAGAGAGAAGUGAACCAGAGAAACACACGUUGUGGAAUAUUACCUGGUA [C3G U58A]: 0.0819; for GUUCUCUUUCACAUGCGCGUGAAAGAGAGAAGUGAACCAGAGAAACACACGUUGUGGUAUAUUACCUGGUA [C3U G13A]: 0.522; for GUUCUCUUUCACGUGCGCGUGAGAGAGAGAAGUGAACCAGAGAAACACACGUUGUGGUAUAUUACCUGGUA [C3U A23G]: 0.325.

As to GUUCUCUUUCACGUGCGCGUGAUAGAGAGAAGUGAACCAGAGAAACACACGUUGUGGUAUAUUACCUGGUA [C3U A23U], the self-cleavage is 0.535. For the variant GUUCUAUUUCACGUGCGCGUGAAAGAGAGAAGUGAACCAGAGAAACACACGUUGUGGUAUAUUACCUGGUA [C3U C6A], the self-cleavage is 0.372. Turning to GUUCUUUUUCACGUGCGCGUGAAAGAGAGAAGUGAACCAGAGAAACACACGUUGUGGUAUAUUACCUGGUA [C3U C6U], the self-cleavage came out at 0.347. The same measure for GUUCUCUUUCACGUGCGCGUGAAAGAGAGAAGUGAGCCAGAGAAACACACGUUGUGGUAUAUUACCUGGUA [C3U A36G]: 0.505; for GUUCUCUUUCACGUGCGCGUGAAAGAGAGAAGUGAACCAGAGAAACACACGUUGUGGUAUAUUAACUGGUA [C3U C65A]: 0.611.

Consider GUUCUCUUUCACGUGCGCGUGAAAGAGAGAAGUGAACCAGAGAAACACACGUUGUGGUAUAUUAUCUGGUA [C3U C65U], for which the self-cleavage came out at 0.334. In the case of GUGCUCUUUCACGUGCGCGUGAAAGAGAGAAGUGAACCAGAGAAACACACGUUGUGGUAUAUUACCUGAUA [C3G G69A] it was 0.108. In the case of GUGCACUUUCACGUGCGCGUGAAAGAGAGAAGUGAACCAGAGAAACACACGUUGUGGUAUAUUACCUGGUA [C3G U5A] it was 0.15; in that of GUGCGCUUUCACGUGCGCGUGAAAGAGAGAAGUGAACCAGAGAAACACACGUUGUGGUAUAUUACCUGGUA [C3G U5G], 0.163. In the case of GUGCUCUUUCACGUGCGCGUGAAAGAGAGAAGUGAACCAGAGAAACACACGUGGUGGUAUAUUACCUGGUA [C3G U53G] it was 0.235. For GUGCUCUUUCACGUGCGCGUGAAAGAGAGAAGUGAACCAGAGAAACACACGUCGUGGUAUAUUACCUGGUA [C3G U53C], the self-cleavage was found to be 0.102. The same measure for GUUCUCUUUCACGUGCGCGUGAACGAGAGAAGUGAACCAGAGAAACACACGUUGUGGUAUAUUACCUGGUA [C3U A24C]: 0.477; for GUGCUCUUUCACGUGCGCGUGAAAGAGAGAAGUGAACCAGAGAAACACACGUUGUGGUAUAUUACCUGGCA [C3G U70C]: 0.235; for GUGCUCUUUCACGAGCGCGUGAAAGAGAGAAGUGAACCAGAGAAACACACGUUGUGGUAUAUUACCUGGUA [C3G U14A]: 0.431.

For GUUCUCUUUCACGUGCGCGUGAAAGAGAGAUGUGAACCAGAGAAACACACGUUGUGGUAUAUUACCUGGUA [C3U A31U], the self-cleavage stood at 0.102. In the case of GUUCUCUUUCACGUGGGCGUGAAAGAGAGAAGUGAACCAGAGAAACACACGUUGUGGUAUAUUACCUGGUA [C3U C16G] it was 0.23. As for GUGCUCUUUCACGUGCGCGUGAAAGAGAGAAGUGAACCAGAGAAACACACGUUGUCGUAUAUUACCUGGUA [C3G G56C], the self-cleavage came to 0.112. In the case of GUGCUCUUUCACGUGCGCGUGAAAGAGAGAAGUGAACCAGAGAAACACACGUUGUUGUAUAUUACCUGGUA [C3G G56U] it was 0.157. In the case of GUGCUCUUUCACGUGCGCGUGAAAGAGAGAAGUGAACCAGAGAAACACACGUUGUAGUAUAUUACCUGGUA [C3G G56A] it was 0.115.
